# Square brackets hold non-standard residues; d marks the D form. Ends that are not written are not given here. Cit = NC(=O)NCCC[C@H](N)C(=O)O
# Columns and labels:
# PS621 = target: T1, PS621 (Kluyveromyces lactis, UniProt O60014, E174T/N105S/N176F/R116K/S153T/V146T); assay: Dynamic single-molecule sequencing, recognition by PS621; format: binding; conditions: for PW of R-X / RS R-X: unmodified arginine peptide; for PW of R-X / PW of ADMA-X / RS ADMA-X / RS R-X: average of 10 sequencing reactions; for PW of ADMA-X / RS ADMA-X: ADMA peptide; for RS ADMA-X / RS R-X: RS duration; for Binding with the recognizer PS621 / Median interpulse duration (IPD) of arginine recognition by PS621: P38MAPKa-derived peptides; for Binding with the recognizer PS621: residue at position 2
# T1 construct: PS621; […]
# T1 sequence (O60014 other isoform, or with tags, fused parts or gaps N105S/R116K/V146T/S153T/E174T/N176F): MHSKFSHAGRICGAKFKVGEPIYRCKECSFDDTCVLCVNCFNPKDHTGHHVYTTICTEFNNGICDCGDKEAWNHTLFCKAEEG
# Source text: PTM detection involved isolating peptides and subjecting them to a real-time single-molecule protein sequencing reaction. Proteins were first digested into peptide fragments and conjugated C-terminally to macromolecular linkers. The peptide complexes were immobilized at the bottom of nanoscale wells on a semiconductor chip, resulting in single peptide molecules with exposed N-termini ready for sequencing. During the sequencing reaction, the surface-immobilized peptides were exposed to a solution containing dye-labeled NAA recognizers that bound on and off to their cognate NAAs with characteristic kinetic properties. Aminopeptidases in solution sequentially removed individual NAAs to expose subsequent amino acids for recognition. Fluorescence lifetime, intensity, and kinetic data were collected in real time and analyzed to determine amino acid sequence and PTM content.
# The trace-level output included distinct pulsing regions called recognition segments (RSs); each RS corresponded to a period of time between aminopeptidase cleavage events during which an NAA recognizer bound on and off to its exposed target NAA. Chemical modifications to a target NAA or to a nearby downstream amino acid can modulate recognizer affinity, resulting in a characteristic change in the average pulse duration (PD) during an RS relative to an unmodified peptide. These modifications can also influence the rate of aminopeptidase cleavage of an NAA, resulting in a characteristic change in average duration of the corresponding RS.
# Synthetic peptides corresponding to residues 69 to 76 of P38MAPKa were generated in three versions containing either arginine, ADMA, or SDMA at position 2: YRELRLLK (SEQ ID NO: 834), YRADMAELRLLK (SEQ ID NO: 835), and YRSDMAELRLLK (SEQ ID NO: 836). Each peptide was sequenced using three recognizers—PS610 (F, Y, W), PS961 (L, I, V), and PS621 (R)—and data were analyzed to identify RSs, determine the mean PD of each RS, and characterize the kinetic signature of each peptide.
# In this example, sequencing reactions were performed using PS621 (R), PS610 (FYW), and PS961 (LIV) recognizers for 9 pairs of peptides. Each pair comprised one peptide comprising an unmodified arginine residue followed by a non-arginine amino acid (referred to as an R-X peptide) and one peptide having an identical sequence except that the unmodified arginine was modified to be ADMA (referred to as an ADMA-X peptide).
# PS610 = assay: Dynamic single-molecule sequencing, recognition by PS610; format: binding, A. tumefaciens; conditions: for Pulse Width: recognizer PS610, recognition of the N-terminal amino acid; for Median PD: peptide LAQFASIAAYASDDD, PS610 and PS961, PhTET2 and PhTET3; for Median pulse duration of tyrosine recognition by PS610: P38MAPKa-derived peptides, PS610, PS961, PS621
# Experimental: The semiconductor chip was placed in the sequencing device and a chip check was performed to test electronic circuit function and to optimize laser coupling alignment. The chip was then removed from the device socket and the chip was washed twice with 50 μL of 70% isopropanol, followed by four washes with 30 μL of wash buffer (50 mM MOPS pH 8.0, 60 mM potassium acetate, 50 mM glucose, 20 mM magnesium acetate, and surfactant mix) through a flow cell attached to the chip. A second chip check was then performed. […] The chip was then washed six times with wash buffer, followed by addition of an imaging solution (wash buffer with 5 mM Trolox and an oxygen scavenging system). The laser was unblocked and the occupancy percentage (target 10-30%, Poisson distributed) was recorded by acquiring a photobleaching signal from a fluorophore attached to the peptide complex during 5 min of laser illumination. […] The laser was then blocked briefly and aminopeptidases were added to the sequencing reaction via the flow cell and mixed thoroughly (final concentration 2-8 μM PhTET2 and/or 20-80 μM PhTET3, as indicated according to the experiment). The laser was then unblocked, and data was recorded for 10 hours. For all runs, 30 μL of mineral oil was added to fluid reservoirs at each port of the flow cell to prevent evaporation during the run.
# (§1) The measured signal on-chip comprises various noise components, the most dominant one being due to fluorescent emissions from diffusing recognizers in the reaction chamber. The pulse caller algorithm for a given reaction chamber starts by estimating the statistical properties of this background noise component. Once an estimate within certain error bounds has been established, the algorithm works in an online fashion observing new frames of data as they are generated. At each point in time, the algorithm maintains state indicating whether the signal is due to the background component only or a pulse from a recognizer-NAA interaction is being observed. The state transition from background to pulse is triggered using an edge detection test where the shift in signal is expected to be significant with respect to the background component's statistical distribution. The state transition from pulse to background is triggered when a small window of the most recent frames of the signal appears to conform to the background component's distribution again. The algorithm maintains an updated model of the background component as new background frames are observed. This provides robustness against drift in the signal intensity together with a feedback control loop that maintains a stable optical coupling of the laser into the chip based on any such detected drift. As detected pulses can be due to true recognizer-to-dipeptide interaction events as well as other occasional transient noise spikes, a downstream filter layer is employed to test the significance of pulse events based on their duration, intensity, and noise patterns within the context of the full timeline of the run and the entire dataset of reaction chambers.
# Initial regions are determined by performing a sliding window calculation of pulse rate along the time dimension of a series of pulses. Regions with a mean pulse rate >1 pulse/min are then subdivided according to a greedy bisection approach. Here, the pulses on the left and right of each potential split are assessed for statistically significant deviation in any of four separate pulse properties—intensity, bin ratio, pulse duration, and interpulse duration—using a Mann-Whitney U Test. To define RSs, the split point with the lowest p-value for any of the four properties is used to sub-divide the region and the process continues until no regions remain with a candidate split point with p-value <10^−5 in any comparison. In this manner, transitions from one RS to the next in a region of continuous pulsing are determined a priori on the basis of changes in fluorescence properties of pulsing kinetics.
# PS961 = assay: Dynamic single-molecule sequencing, recognition by PS961; format: binding, Planctomycetes; conditions: for Median PD, recognition of N-terminal leucine by PS961: peptides RLAFAYPDDD, RLIFAYPDDD, RLVFAYPDDD; for RS mean PD, N-terminal leucine by PS961 / RS mean duration for leucine recognition: leucine followed by threonine or phosphothreonine
# Sequence of PS961 (as listed by the source): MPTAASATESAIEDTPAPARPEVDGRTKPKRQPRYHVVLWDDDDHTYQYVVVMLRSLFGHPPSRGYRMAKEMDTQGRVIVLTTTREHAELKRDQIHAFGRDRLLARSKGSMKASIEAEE
# Experimental: The semiconductor chip was placed in the sequencing device and a chip check was performed to test electronic circuit function and to optimize laser coupling alignment. The chip was then removed from the device socket and the chip was washed twice with 50 μL of 70% isopropanol, followed by four washes with 30 μL of wash buffer (50 mM MOPS pH 8.0, 60 mM potassium acetate, 50 mM glucose, 20 mM magnesium acetate, and surfactant mix) through a flow cell attached to the chip. A second chip check was then performed. The laser was then blocked via an integrated software-controlled shutter, peptide complex was added to a final concentration of 1-10 nM and mixed thoroughly, and the chip was incubated for 15 min. The chip was then washed six times with wash buffer, followed by addition of an imaging solution (wash buffer with 5 mM Trolox and an oxygen scavenging system). The laser was unblocked and the occupancy percentage (target 10-30%, Poisson distributed) was recorded by acquiring a photobleaching signal from a fluorophore attached to the peptide complex during 5 min of laser illumination. For NAA recognition-only assays, after peptide loading, labeled recognizer was added to a final concentration of 50 nM PS610, 100 nM PS691, or 250 nM PS961 (as indicated according to the experiment), and data was recorded for 10 hours. For dynamic sequencing assays, after peptide loading, a mixture of labeled recognizers was added to obtain final concentrations of 50 nM PS610, 100 nM PS691, and 250 nM PS961. Data was recorded for 15 min. The laser was then blocked briefly and aminopeptidases were added to the sequencing reaction via the flow cell and mixed thoroughly (final concentration 2-8 μM PhTET2 and/or 20-80 μM PhTET3, as indicated according to the experiment). The laser was then unblocked, and data was recorded for 10 hours. For all runs, 30 μL of mineral oil was added to fluid reservoirs at each port of the flow cell to prevent evaporation during the run.
# as §1
# Initial regions are determined by performing a sliding window calculation of pulse rate along the time dimension of a series of pulses. Regions with a mean pulse rate >1 pulse/min are then subdivided according to a greedy bisection approach.
substance,measurement,setting,value
LRTAFAYPDDDK [QP942],PW of R-X,PS621,<0.06 s
LRADMATAFAYPDDDK [QP945],PW of ADMA-X,PS621,<0.06 s
FCitLAFAYPDDDK (F[Cit]LAFAYPDDDK-NH2; also: C-terminal azidolysine (general statement for all synthetic peptides)) [QP1029],Pulse Width,PS610,5.24 s
RLAFAYPDDD,"Median PD, recognition of N-terminal leucine by PS961",PS961,1.29 s
LRAAFAYPDDDK [QP747],PW of R-X,PS621,<0.12 s
LRSAFAYPDDDK [QP748],PW of R-X,PS621,<0.12 s
LRADMAYAFAYPDDDK [QP742],PW of ADMA-X,PS621,0.25 s
same,RS ADMA-X,PS621,39.2 min
LRQAFAYPDDDK [QP941],PW of R-X,PS621,<0.06 s
LREAFAYPDDDK [QP938],PW of R-X,PS621,<0.06 s
RLpTFIAYPDDD,"RS mean PD, N-terminal leucine by PS961",PS961,0.3 s
same,RS mean duration for leucine recognition,PS961,130 min
"RLMFAYPDDD (not fully specified (residue 3, C-terminus); also: all synthetic peptides contained C-terminal Fmoc-azidolysine)","Median PD of leucine recognition, first population of traces",PS961; leucine followed by methionine (LM),0.86 s
same,"Median PD of leucine recognition, second population of traces","PS961; methionine not recognized, oxidized (LMo)",0.35 s
LRADMASAFAYPDDDK [QP744],PW of ADMA-X,PS621,0.55 s
LRVAFAYPDDDK [QP943],RS R-X,PS621,25.5 min
same,PW of R-X,PS621,0.41 s
RLVFAYPDDD,"Median PD, recognition of N-terminal leucine by PS961",PS961,4.21 s
LRADMAVAFAYPDDDK [QP946],PW of ADMA-X,PS621,0.32 s
same,RS ADMA-X,PS621,33.8 min
LRADMALAFAYPDDDK [QP729],PW of ADMA-X,PS621,0.48 s
same,RS ADMA-X,PS621,48.5 min
LAQFASIAAYASDDD,Median PD,PS610; listed as FAS,1.43 s
same,Median PD,PS610; listed as YAS,0.66 s
same,Median PD,"PS961; peptide LAQFASIAAYASDDD, PS610 and PS961, PhTET2 and PhTET3",2.70 s
LRADMAQAFAYPDDDK [QP944],PW of ADMA-X,PS621,0.21 s
LRADMAEAFAYPDDDK [QP939],PW of ADMA-X,PS621,0.34 s
LRIAFAYPDDDK [QP749],RS R-X,PS621,15.4 min
same,PW of R-X,PS621,0.28 s
RLIFAYPDDD,"Median PD, recognition of N-terminal leucine by PS961",PS961,2.22 s
YCitIAFAYPDDDK (Y[Cit]IAFAYPDDDK-NH2; also: C-terminal azidolysine (general statement for all synthetic peptides)) [QP1031],Pulse Width,PS610,1.12 s
YRSDMAELRLLK (YRELRLLK) [P38MAPKa peptide with symmetric dimethylarginine at position 2],Median pulse duration of tyrosine recognition by PS610,PS610,1.48 s
same,Binding with the recognizer PS621,PS621,no binding
LRYAFAYPDDDK [QP746],RS R-X,PS621,9.6 min
same,PW of R-X,PS621,0.18 s
FRLAFAYPDDDK (FRLAFAYPDDDK-NH2; not fully specified (residue 2); also: all synthetic peptides contained C-terminal Fmoc-azidolysine) [QP1028],Pulse Width,PS610,4.94 s
YRIAFAYPDDDK (YRIAFAYPDDDK-NH2; not fully specified (residue 2); also: all synthetic peptides contained C-terminal Fmoc-azidolysine) [QP1030],Pulse Width,PS610,0.77 s
"RLTFIAYPDDD (not fully specified (residue 3, C-terminus); also: all synthetic peptides contained C-terminal Fmoc-azidolysine)","RS mean PD, N-terminal leucine by PS961",PS961,1.2 s
same,RS mean duration for leucine recognition,PS961,8.1 min
LRADMAIAFAYPDDDK [QP745],PW of ADMA-X,PS621,0.32 s
same,RS ADMA-X,PS621,46.9 min
"YRADMAE (YRELRLLK) [YRADMAELRLLK, P38MAPKa peptide with asymmetric dimethylarginine at position 2]",Median pulse duration of tyrosine recognition by PS610,PS610,1.47 s
same,Median interpulse duration (IPD) of arginine recognition by PS621,PS621,5.82 s
same,Binding with the recognizer PS621,PS621,binding
LRADMAAAFAYPDDDK [QP743],PW of ADMA-X,PS621,0.19 s
YRELRLLK,Median pulse duration of tyrosine recognition by PS610,PS610,0.69 s
same,Median interpulse duration (IPD) of arginine recognition by PS621,PS621,10.05 s
same,Binding with the recognizer PS621,PS621,binding

# Source: patent US20230213527A1, “COMPOSITIONS AND METHODS FOR POLYPEPTIDE ANALYSIS” (Quantum-Si Incorporated, priority 2021, published 2023)
